Measured values taken from patent publication US12139520B2 (priority 2020, dated 2024).
Numbered stars: 1 amine (or outer) side, 2 acyl side, 3 side chain; on linkers, the order of the positions; unused ones are H or OH. Bridge positions count the residues as written; N and C are the ends. Square brackets hold non-standard residues; d marks the D form. Side chains are listed from the residue outwards. Ends that are not written are not given here. * marks the point of attachment. C20 diacid = O=C(O)CCCCCCCCCCCCCCCCCCC(=O)*; γGlu = O=C(O)[C@H](CCC(=O)[*:2])N[*:1]; Hyp = O=C(O)[C@@H]1C[C@@H](O)CN1; Trx = NC[C@H]1CC[C@H](C(=O)O)CC1; AEEA = NCCOCCOCC(=O)O; Aib = CC(C)(N)C(=O)O

T1: hAMY3R (human, UniProt P30988)
T1 sequence 1: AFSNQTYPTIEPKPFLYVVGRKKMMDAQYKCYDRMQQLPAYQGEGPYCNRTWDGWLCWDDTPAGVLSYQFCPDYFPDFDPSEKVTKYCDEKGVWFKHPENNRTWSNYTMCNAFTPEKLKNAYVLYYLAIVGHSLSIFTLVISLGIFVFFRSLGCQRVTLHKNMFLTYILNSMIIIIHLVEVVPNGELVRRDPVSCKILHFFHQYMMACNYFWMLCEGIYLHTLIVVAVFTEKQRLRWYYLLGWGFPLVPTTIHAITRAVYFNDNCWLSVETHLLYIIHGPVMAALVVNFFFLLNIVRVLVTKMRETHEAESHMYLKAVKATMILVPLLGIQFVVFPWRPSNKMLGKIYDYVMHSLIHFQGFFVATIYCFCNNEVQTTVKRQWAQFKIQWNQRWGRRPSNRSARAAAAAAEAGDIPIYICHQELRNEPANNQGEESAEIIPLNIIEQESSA
T1 sequence 2: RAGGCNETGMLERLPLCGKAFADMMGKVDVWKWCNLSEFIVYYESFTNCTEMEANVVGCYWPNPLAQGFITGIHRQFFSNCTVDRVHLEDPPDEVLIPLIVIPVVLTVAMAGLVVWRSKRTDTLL


Columns and labels:
hAMY3R = target: T1, hAMY3R; assay: cell-based or functional assay
hAM1R = hAM1R (human, UniProt Q16602); assay: cell-based or functional assay

hAMY3R EC50 (cAMP) (hAMY3R) [nM]	hAM1R EC50 (cAMP) (hAM1R) [nM]	Binder
0.028	107	GCRFGTCTVQRLAHQIYQFTDKDKDNVAPRSKIGPQG[Hyp]-NH2 (disulfide 2-7 (inferred); ends not checked) [SEQ ID NO: 127]
0.025	> 5000	{C20 diacid-γGlu}-KCNTATCTVQRLAHQIAQFTDKDKDPVAPPTNVGSNS[Hyp]-NH2 (disulfide 2-7 (inferred); ends not checked) [SEQ ID NO: 120]
0.027	34.8	GCRFGTCTVQRLAHQIYQFTDKDKDNVAPRTKIGPNG[Hyp]-NH2 (disulfide 2-7 (inferred); ends not checked) [SEQ ID NO: 124]
0.031	33.8	GCRFGTCTVQRLAHQIYQFTDKDKDNVAPRSNVSPQGY [SEQ ID NO: 131]
0.029	367	GCRTGTCTVQRLAHQIYQFTDKDKDNVAPRSKVGPQGY [SEQ ID NO: 129]
0.026	> 5000	{C20 diacid-γGlu}-KCNTATCTVQRLAEQIYQFTDKAKDNVAPPTNVGSNG[Hyp]-NH2 (disulfide 2-7 (inferred); ends not checked) [SEQ ID NO: 122]
0.031	> 5000	{C20 diacid-γGlu}-KCNTATCTVARLAEQIYQFTDKDKDPVAPPTNVGSNG[Hyp]-NH2 (disulfide 2-7 (inferred); ends not checked) [SEQ ID NO: 133]
0.031	2980	GCRFGTCTVQRLAHQIYQFTDKDKDNVAPRTKVSPQG[Hyp]-NH2 (disulfide 2-7 (inferred); ends not checked) [SEQ ID NO: 132]
0.027	2980	GCRFGTCTVQRLAHQIYQFTDKDKDNVAPRTNVSPQG[Hyp]-NH2 (disulfide 2-7 (inferred); ends not checked) [SEQ ID NO: 125]
0.026	2980	GCRTGTCTVQRLAHQIYQFTDKDKDNVAPRSNVGPQG[Hyp]-NH2 (disulfide 2-7 (inferred); ends not checked) [SEQ ID NO: 121]
0.03	> 5000	{C20 diacid-γGlu}-KCNTATCTVDRLAHQIAQFTDKDKDPVAPPTNVGSNG[Hyp]-NH2 (disulfide 2-7 (inferred); ends not checked) [SEQ ID NO: 130]
0.032	2980	GCRFGTCTVQRLAHQIYQFTDKDKDNVAPRTKVSPNG[Hyp]-NH2 (disulfide 2-7 (inferred); ends not checked) [SEQ ID NO: 134]
0.028	130	KCNTATCATQRLANFLVHSSNNFGAIAPSTKIGPNGY [SEQ ID NO: 128]
0.027	31.7	GCRFGTCTVQRLAHFLYQFTDKDGAIAPRTKIGSQGY [SEQ ID NO: 123]
0.027	> 5000	{C20 diacid-Trx-γGlu-AEEA-AEEA}-KCNTATCTVQRLAEQIYQFTDKDKDNVAPPTNVGSNG[Hyp]-NH2 (disulfide 2-7 (inferred); ends not checked) [SEQ ID NO: 126]

The next lines start with the binder.

Binder	hAMY3R EC50 (cAMP) (hAMY3R) [nM]	hAM1R EC50 (cAMP) (hAM1R) [nM]
GCRTGTCTVQRLAHQIYQFTDKDKDNVAPRTKIGPNG[Hyp]-NH2 (disulfide 2-7 (inferred); ends not checked) [SEQ ID NO: 115]	0.023	130
{C20 diacid-γGlu}-KCNTATCTVQRLAHQINQFTDKDKDNVAPPTNVGSNG[Hyp]-NH2 (disulfide 2-7 (inferred); ends not checked) [SEQ ID NO: 11]	0.007	> 5000
GCRTGTCTVQRLAHQIYQFTDKDKDNVAPRTNIGPQG[Hyp]-NH2 (disulfide 2-7 (inferred); ends not checked) [SEQ ID NO: 118]	0.024	2980
{C20 diacid-γGlu}-KCNTATCTVQRLAHQIEQFTDKDKDNVAPPTNVGSNG[Hyp]-NH2 (disulfide 2-7 (inferred); ends not checked) [SEQ ID NO: 110]	0.02	> 5000
KCNTATCTVQRLAHAIYQFTDKDKDNVAPPTNVGSNG[Hyp]-NH2 (disulfide 2-7 (inferred); ends not checked) [SEQ ID NO: 13]	0.007	> 5000
{C20 diacid-γGlu}-KCNTATCTVARLAHQIAQFTDKDKDNVAPPTNVGSNG[Hyp]-NH2 (disulfide 2-7 (inferred); ends not checked) [SEQ ID NO: 107]	0.019	647
GCRFGTCTVQRLAHQIYQFTDKDKDNVAPRTKISPNG[Hyp]-NH2 (disulfide 2-7 (inferred); ends not checked) [SEQ ID NO: 113]	0.022	2980
{C20 diacid-γGlu}-KCNTATCTVQRLAEQIYQFTDKDKANVAPPTNVGSNG[Hyp]-NH2 (disulfide 2-7 (inferred); ends not checked) [SEQ ID NO: 108]	0.019	> 5000
KCNTATCTVQRLAEQIYQFTDKDKDNK([AEEA-AEEA-γGlu-C20 diacid])APPTNVGSNG[Hyp]-NH2 (disulfide 2-7 (inferred); ends not checked) [SEQ ID NO: 12]	0.007	> 5000
GCRTGTCTVQRLAHQIYQFTDKDKDNVAPRTNVGPQGY [SEQ ID NO: 109]	0.02	2980
GCRFGTCTVQRLAHQIYQFTDKDKDNVAPRTNVSPQGY [SEQ ID NO: 116]	0.024	48.2
KCNTATCTVQRLAHQIYQATDKDKDNVAPPTNVGSNG[Hyp]-NH2 (disulfide 2-7 (inferred); ends not checked) [SEQ ID NO: 114]	0.022	> 5000
{C20 diacid-γGlu}-KCNTATCTVQRLAEQIYQFTAKDKDNVAPPTNVGSNG[Hyp]-NH2 (disulfide 2-7 (inferred); ends not checked) [SEQ ID NO: 106]	0.018	> 5000
GCRFGTCTVQRLAHQIYQFTDKDKDNVAPRTKIGPQG[Hyp]-NH2 (disulfide 2-7 (inferred); ends not checked) [SEQ ID NO: 111]	0.021	2980
{C20 diacid-γGlu}-KCNT[Aib]TCTVQRLAHQIYQFTDKDKDNVAPPTNVGSNG[Hyp]-NH2 (disulfide 2-7 (inferred); ends not checked) [SEQ ID NO: 119]	0.024	> 5000
{C20 diacid-γGlu}-KCNTATCTVQRLAHQIAQFADKDKDNVAPPTNVGSNG[Hyp]-NH2 (disulfide 2-7 (inferred); ends not checked) [SEQ ID NO: 105]	0.018	> 5000
GCRFGTCTVQRLAHFLYQFTDKDKDNVAPRTKVGSNGY [SEQ ID NO: 117]	0.024	51.6
{C20 diacid-γGlu}-KCNTATCTVDRLAHQIAQFTDKDKDNVAPPTNVGSNG[Hyp]-NH2 (disulfide 2-7 (inferred); ends not checked) [SEQ ID NO: 112]	0.021	> 5000
